Measurements: patent US20250297255A1 (ARSENAL BIOSCIENCES, published 2025)

B1: TMPRSS4 Ab62 scFv (VH-VL) (scFv)
scFv: QVQLVQSGAEVKKPGASVKVSCKASGYTFTDYYIHWVRQAPGQGLEWMGWISTYNGNTNYAQKLQGRVTMTRDTSTSTVYMELSSLRSEDTAVYYCARGMVRGMDVWGQGTMVTVSSGGGGSGGGGSGGGGSDIVMTQSPDSLAVSLGERATINCKSSQSVLYSSNNKNYLAWYQQKPGQPPKLLIYWASTRESGVPDRFSGSGSGTDFTLTISSLQAEDVAVYYCQQYYTTPWTFGQGTRLEIK
notes: on monoclonal phage in the screen
B2: TMPRSS4 Ab66 scFv (VH-VL) (scFv)
scFv: QVQLVQSGAEVKKPGSSVKVSCKASGGTFSSYAISWVRQAPGQGLEWVGGIMPIFGTANYAQKFQGRVTITADESPSTAYMELSSLRSEDTAVYYCATGRRELLNWGQGTLVTVSSGGGGSGGGGSGGGGSEIVMTQSPATLSVSPGERATLSCRASQSVNSRFLAWYQQKPGQAPRLLIYGASTRATGIPARFSGSGSGTEFTLTISSLQSEDFAVYYCMQGTHWPYTFGQGTKVEIK
notes: as for B1
B3: TMPRSS4 Ab63 scFv (VH-VL) (scFv)
scFv: QVQLVQSGAEVKKPGASVKVSCKASGYTFTGYRMHWVRQAPGQGLEWMGVINPNTGTARFAQKFQGRVTMTRDTSTSTVYMELSSLRSEDTAVYYCASVGVYWYFDLWGRGTLVTVSSGGGGSGGGGSGGGGSDIVMTQSPDSLAVSLGERATINCKSSQSVLYSSNNKNYLAWYQQKPGQPPKLLIYWASTRESGVPDRFSGSGSGTDFTLTISSLQAEDVAVYYCQQYYSAPLTFGGGTKVEIK
notes: as for B1
B4: TMPRSS4 Ab61 scFv (VH-VL) (scFv)
scFv: QVQLVQSGAEVKKPGASVKVSCKASGYTFTNYYMHWVRQAPGQGLEWMGWMNPNSGNTGYAQNLQGRVTMTRDTSTSTVYMELSSLRSEDTAVYYCARGRTWFRSGMDVWGQGTTVTVSSGGGGSGGGGSGGGGSEIVMTQSPATLSVSPGERATLSCRASQSVSSYLAWYQQKPGQAPRLLIYGASTRATGIPARFSGSGSGTEFTLTISSLQSEDFAVYYCQQYDISVTFGPGTKVDIK
notes: as for B1
B5: TMPRSS4 Ab64 scFv (VH-VL) (scFv)
scFv: QVQLVQSGAEVKKPGASVKVSCKASGYTFTGYYMHWVRQAPGQGLEWMGMINPSGGGTTYAQKFQGRVTMTRDTSTSTVYMELSSLRSEDTAVYYCARDRRSMITFRTDYWGQGTLVTVSSGGGGSGGGGSGGGGSDIVMTQSPDSLAVSLGERATINCKSSQSVLYSSNNKNYLAWYQQKPGQPPKLLIYWASTRESGVPDRFSGSGSGTDFTLTISSLQAEDVAVYYCQQYYSTPYTFGQGTKLEIK
notes: as for B1
B6: TMPRSS4 Ab67 scFv (VH-VL) (scFv)
scFv: QVQLVQSGAEVKKPGSSVKVSCKASGYTFTSYDINWVRQAPGQGLEWMGGIIPIFGTANYAQKFQGRVTITADESTSTAYMELSSLRSEDTAVYYCATTPGDAFDIWGQGTMVTVSSGGGGSGGGGSGGGGSDIVMTQSPDSLAVSLGERATINCKSSQSVLYSSNNKNYLAWYQQKPGQPPKLLIYWASTRESGVPDRFSGSGSGTDFTLTISSLQAEDVAVYYCQQYSDTPLTFGQGTKVEIK
notes: as for B1
B7: TMPRSS4 Ab65 scFv (VH-VL) (scFv)
scFv: QVQLVQSGAEVKKPGASVKVSCKASGYTFTGYYMHWVRQAPGQGLEWMGWMNPNSGNTGYAQKFQGRVTMTRDTSTSTVYMELSSLRSEDTAVYYCAGRKWLGLDFYNWFDPWGQGTLVTVSSGGGGSGGGGSGGGGSDIVMTQSPDSLAVSLGERATINCKSSQSVLYSSNNKNYLAWYQQKPGQPPKLLIYWASTRQSGVPDRFSGSGSGTDFTLTISSLQAEDVAVYYCQQYYSTPWTFGQGTKVEIK
notes: as for B1
B8: TMPRSS4 Ab60 scFv (VH-VL) (scFv)
scFv: QVQLVQSGAEVKKPGASVKVSCKASGYSFTTYYIHWVRQAPGQGLEWMGIINPSGGSTSYAQKFQGRVTMTRDTSTSTVYMELSSLRSEDTAVYYCARGGYYGSGYNSVGYWGPGTLVTVSSGGGGSGGGGSGGGGSEIVMTQSPATLSVSPGERATLSCRASQSVSSNTLAWYQQKPGQAPRLLIYGASTRATGIPARFSGSGSGTEFTLTISSLQSEDFAVYYCQQYGSSPLTFGPGTKVDIK
notes: as for B1

The binders below were run against T1, Human TMPRSS4 (Transmembrane protease, serine 4), wild type full length (human, UniProt Q9NRS4 1-437) (assay: flow cytometry, monoclonal phage on HEK293T-TMPRSS4 cells;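 further: bound phage detected with a PE-labelled mouse anti-M13 monoclonal antibody, read by flow cytometry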).
T1 construct: Type II membrane protein over-expressed on HEK293T cells (also endogenous on H1975 and LUDLU-1 cells); also called TMPRSS4 WT; HEK293T-TMPRSS4
T1 sequence (Q9NRS4 whole entry): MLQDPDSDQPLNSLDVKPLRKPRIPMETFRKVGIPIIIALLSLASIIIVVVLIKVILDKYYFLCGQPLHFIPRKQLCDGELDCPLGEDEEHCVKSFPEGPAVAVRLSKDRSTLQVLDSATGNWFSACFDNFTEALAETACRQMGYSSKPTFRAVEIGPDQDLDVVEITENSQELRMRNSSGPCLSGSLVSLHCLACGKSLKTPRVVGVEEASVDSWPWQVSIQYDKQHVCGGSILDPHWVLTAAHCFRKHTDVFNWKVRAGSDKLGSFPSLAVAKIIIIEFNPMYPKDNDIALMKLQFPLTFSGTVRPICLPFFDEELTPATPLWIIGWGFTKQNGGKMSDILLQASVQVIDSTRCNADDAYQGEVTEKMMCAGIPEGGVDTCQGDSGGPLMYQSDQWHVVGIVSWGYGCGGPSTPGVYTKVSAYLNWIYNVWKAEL
B1: binds. B2: binds. B3: binds. B4: binds. B5: binds. B6: binds. B7: binds. B8: binds.
